Data taken from patent publication US20240148841.

Biological target: human IgG (of human serum; IgG against AAV8 in AAV8 positive human serum pools CP16 and P1)

B1: IdeSORK (Xork) IgG protease (protein)
chain: LSKRKLLKKIEKKDTSSVLTQKKQTKTLWADGVQVDDKDFKPSTENFGTNYLAAEYGIGKGYYDINKKFDGTDDDLCSGVVAANQLHWWLDRNKDYIEKYRQQSKDNGVTIGNTDIFELNKLHDEDQSNFFDFIKKSFGNKFLQPERLLNMYINGYGYLTSQDKAKTSQPSPSKLNFFQKVFKNNLLTDKTPINDIDEFSSQTKNALQNHKVLAVSFASIKNRGLGHVVTVWGADFDENGKVVALYVTDSDDRSKNIGNAKLGMKKLRIEVSAQDSSTIKLTGFEDKNSGGSLRHLYSLSTGEQIWKKYFEETEKERIRLEEEADKAKLEQDRIQKEAEEKLALEKAEKERIRLEEEADKAKLEQDRIQKEAEEKLALEKAEKERIRLEEEADKAKLEQDRIQKEAEEKLALEKAEKERIRLEEEADKAKLEQDRIQKEAEEKLALEKAEKERIRLEEEAAKAKLEQEKQIATAPQPDKKQENTTSEQEKPAPTELPPLVNKADETETPRETAPDQTPSATNTFRKILPKMNAVSQFFSQLMGTIQIVFAFILKIFK
In the case of B1, the “cleavage of human IgG in vitro” value is reported as “Xork cleaves human IgG in vitro with the same specificity and mechanism as IdeS”.
